Laboratory results from the supplement of paper PMC10567573.
± gives the standard deviation.

Test: protein stability index of a GFP-peptide fusion (GPS, HEK-293T) (PSI 1-6); higher = more stable
[1] = treatment: DMSO, c terminus: a fixed tail appended
[2] = treatment: MLN4924 1 uM, 8 h, c terminus: a fixed tail appended
[3] = treatment: DMSO, c terminus: native
[4] = treatment: MLN4924 1 uM, 8 h, c terminus: native
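Further: 24-mer peptide tiles fused after GFP, lentivirally expressed, FACS-sorted into six equal bins by GFP/DsRed ratio, decoded by Illumina sequencing, PSI is the read-weighted mean bin number.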

Sequence	protein stability index [1]	protein stability index [2]	protein stability index [3]	protein stability index [4]
EDRVKLFGIEIEVTDINDNAPKFQ [PCDHGA10]	3.35 ± 0.43	3.52 ± 0.46	–	–
EDTKPKPTKRKRKGSSAVGSDSD [INTS3]	–	–	5.45 ± 0.25	5.4 ± 0.33
EEAEGARWTSYRFSRVCRLHRGQL [TRIM35]	2.91 ± 0.23	3 ± 0.08	–	–
EEKIQVLQQQNEDLKARIDQNTVV [MTUS2]	5.28 ± 0.24	5.28 ± 0.069	–	–
EELLYDYGDRSKASIEAHPWLKH [KMT5A]	–	–	4.9 ± 0.39	4.83 ± 0.28
EELVARSETHAAGHSQEKTHSREK [CHGB]	5.66 ± 0.28	5.47 ± 0.5	–	–
EEPCSPGLLQDQGSGLSSRFEEPK [CBY2]	5.4 ± 0.19	5.29 ± 0.34	–	–
EESTPGQTNSETAVVALTQDQPSE [HDAC6]	5.49 ± 0.22	5.59 ± 0.34	–	–
EEYPGITAEDSNDIYILPSDNSGQ [BCL2L13]	5.25 ± 0.18	5.14 ± 0.21	–	–
EFDYLKSLEIEEKINKIRWLPQQN [PPP2R2B]	2.62 ± 0.21	2.9 ± 0.42	–	–
EFFLEQTKKKGVKRPARLHTKPSQ [NOP53]	3.66 ± 0.55	3.68 ± 0.5	–	–
EGDVCGVEPPGPGDTVVQGDLQET [PBXIP1]	5.57 ± 0.28	5.64 ± 0.19	–	–
EGLNSSLCSPGHERRGTPADTEEP [PSD2]	5.39 ± 0.37	5.53 ± 0.19	–	–
EGLRELQRSRRLCHEDVEALAAIY [DAPK3]	2.72 ± 0.74	–	–	–
EGNALQGPILQKDYVQLENQWETP [ZNF449]	4.86 ± 0.13	4.68 ± 0.23	–	–
EGRGPVTPLHLDLTQLHRLSLESS [PLEKHN1]	3.4 ± 0.31	3.28 ± 0.22	–	–
EHACTVRNLARSQSVKMKDKLKID [TAF7L]	4.75 ± 0.18	4.81 ± 0.2	–	–
EHPPEVSRETQRTPMNHQKAVNDE [FBXO34]	5.29 ± 0.21	5.41 ± 0.075	–	–
EIDCVDKDGNTPLHVAARYGHELL [ANKRD44]	4.05 ± 0.26	4.05 ± 0.19	–	–
EIEQLLARLTGVNDKMAEYTNSAG [GOSR1]	2.29 ± 0.24	2.46 ± 0.45	–	–
EIETWVREHCPENRERVVSLIEDL [ZNF449]	3.9 ± 0.2	4.01 ± 0.29	–	–
EIFRQRFRQFGYQDSPGPREAVSQ [ZNF24]	2.7 ± 0.21	3.25 ± 0.082	–	–

Sequence	protein stability index [1]	protein stability index [2]	protein stability index [3]	protein stability index [4]
EIILYWKHSTIFDVGENLTVPDEF [SLC25A25]	2.23 ± 0.85	2.1 ± 0.39	–	–
EILPFLYLGSAYHASKCEFLANLH [DUSP5]	2.94 ± 0.5	2.92 ± 0.75	–	–
EILTLLQGVHQGAGFQDIPKRCLK [TSN]	2.08 ± 0.3	2.41 ± 0.49	–	–
EIPDQNIDVEALQVAFGSLYRDDV [GMCL1]	4.58 ± 0.32	4.64 ± 0.094	–	–
EIRMWQTREKAKFSDGEKCRREAF [PHTF1]	2.98 ± 0.14	3.1 ± 0.31	–	–
EKERRKKQQWEIMHKHNETSQKIA [RSPH3]	4.44 ± 0.42	4.91 ± 0.26	–	–
EKLCSISLSHINAYACLVCGKYFQ [USP39]	2.67 ± 0.56	2.61 ± 0.58	–	–
EKMKKRKMSNSFHGIRPPQLEQPE [RHOBTB3]	4.65 ± 0.12	4.77 ± 0.14	–	–
ELAELEDALRNLKCGSGARGGDGE [TRADD]	4.7 ± 0.39	4.66 ± 0.07	–	–
ELEGLIADPDEMRMQALLIRERIL [FEM1C]	2.54 ± 0.48	2.65 ± 0.43	–	–
ELERLIDKAMKKDGLVGMAIVGGM [FIS1]	2 ± 0.29	2.46 ± 0.37	–	–
ELKTFRLKTRSWAGERSRRELCSR [CDC25B]	3.07 ± 0.099	3.44 ± 0.56	–	–
ELSSLGSDSEANGFAERRIDKFGF [TBC1D10A]	3.82 ± 0.2	3.83 ± 0.15	–	–
ELVLEQQLDREAQARHQLVLTAVD [PCDHGC5]	3.99 ± 0.15	4.103 ± 0.038	–	–
EMEEGVKESLCAKEEKCQGKGDDS [KCNA4]	5.62 ± 0.19	5.57 ± 0.33	–	–
EMPTQPGKPLIPPMNRRNILVMKH [NETO1]	3.21 ± 0.045	3.27 ± 0.24	–	–
EMYQVSRLQHICELFIITQLQSMP [RHOBTB3]	2.21 ± 0.23	2.16 ± 0.44	–	–
ENGYGFHLNAIRGLPGSFIKEVQK [PDZK1]	2.62 ± 0.18	2.97 ± 0.43	–	–
ENRLSVFFSVIFMTVGILSNSLAI [PTGFR]	3.14 ± 0.25	3.36 ± 0.17	–	–
ENRTLQVLRAEHRGFQEENKALWE [CBY2]	4.37 ± 0.37	4.38 ± 0.17	–	–
ENTIAGANHTHTFYGHSHHSHHGH [C10orf62]	3.58 ± 0.25	3.78 ± 0.23	–	–
EPHKCPECGKRFLRSSDLYRHQRL [ZNF449]	3.96 ± 0.36	4.39 ± 0.47	–	–

Sequence	protein stability index [1]	protein stability index [2]	protein stability index [3]	protein stability index [4]
EPIPFWTFLSRILTGLNYEAPKYH [NSDHL]	2.62 ± 0.23	2.76 ± 0.42	–	–
EQEIQFEDFTNTLRELGHAEHEIT [PKD2L1]	5.16 ± 0.2	5.17 ± 0.32	–	–
EQQRIIAILLDAHHKTYDPTYSDF [VDR]	2.48 ± 0.37	2.27 ± 0.15	–	–
ERAKREMVMYSITVAFWLLNSWLW [MFF]	2.48 ± 0.48	1.87 ± 0.39	–	–
ERLAEAEKSQLIMQAEAEAASVRM [FLOT1]	4.84 ± 0.39	4.66 ± 0.3	–	–
ERLTKQEKRPLFLAPDFDRWLDES [HACD3]	3.87 ± 0.21	3.93 ± 0.38	–	–
ERPYGCDECEKAYFYMSCLVKHKR [ZNF649]	2.48 ± 0.16	2.81 ± 0.28	–	–
ERTEESSAVQYFQFYGYLSQQQNM [CARM1]	2.56 ± 0.25	2.82 ± 0.52	–	–
ESDDAFDTVTIPVPSEEPQESDQT [IQUB]	5.69 ± 0.24	5.72 ± 0.3	–	–
ESFLAWKKRKRQEKIDKLEQDMER [ZC3H15]	3.8 ± 0.2	4.22 ± 0.33	–	–
ESIAHIGDVMFTGTADGRVVKLEN [APMAP]	4.11 ± 0.17	4.38 ± 0.19	–	–
ESLSAIEAELEKVAHQLQALRRG [CHGA]	–	–	3.19 ± 0.42	3 ± 0.72
ESTELMTHLEAQNRIKGCHDHLTL [PDLIM4]	3.83 ± 0.13	3.88 ± 0.15	–	–
ESTRELGELLGEARYYLVQGLIED [KCTD13]	2.88 ± 0.19	2.91 ± 0.31	–	–
ESWDEEDKRNYPSLELDKMAHGYG [CHGB]	4.87 ± 0.1	4.87 ± 0.14	–	–
ESYPEDTVFYIPEDHKPGTFPKAL [DLC1]	4.13 ± 0.31	4.22 ± 0.21	–	–
ETCDLGKIKPEARRYLEKSIKMGK [NLN]	4.09 ± 0.18	4.45 ± 0.23	–	–
ETETLVTREAVTEILGIEPDREKG [TSN]	5.5 ± 0.19	5.39 ± 0.33	–	–
ETLLKVDLENRCQSLTEDLEFRKS [LMNB1]	4.42 ± 0.22	4.43 ± 0.2	–	–
ETVDLVLKLKNKLLQADREHLPVK [DENND6A]	2.86 ± 0.41	2.72 ± 0.38	–	–
EVDAAPPVDLNKILEDMRCQYEAL [KRT36]	4.59 ± 0.13	4.68 ± 0.096	–	–
